According to paper PMC9458440, “Cryo-EM structure of the Smc5/6 holo-complex” (Nucleic Acids Research, 2022):

T1: Smc6 (Walker B mutant E1048Q), subunit of the S. cerevisiae Smc5/6 holo-complex (S. cerevisiae, UniProt Q12749 1-1114, E1048Q)
T1 construct: Smc6, Saccharomyces cerevisiae; the model holds amino acids 74-213, 215-290, 292-370, 387-431, 436-805, 814-919, 922-1104; The complex was crosslinked with BS3; also called ν-SMC; source: recombinant, expressed in insect cells, purified as holo-complex (Superose 6 SEC), BS3-crosslinked
T1 sequence: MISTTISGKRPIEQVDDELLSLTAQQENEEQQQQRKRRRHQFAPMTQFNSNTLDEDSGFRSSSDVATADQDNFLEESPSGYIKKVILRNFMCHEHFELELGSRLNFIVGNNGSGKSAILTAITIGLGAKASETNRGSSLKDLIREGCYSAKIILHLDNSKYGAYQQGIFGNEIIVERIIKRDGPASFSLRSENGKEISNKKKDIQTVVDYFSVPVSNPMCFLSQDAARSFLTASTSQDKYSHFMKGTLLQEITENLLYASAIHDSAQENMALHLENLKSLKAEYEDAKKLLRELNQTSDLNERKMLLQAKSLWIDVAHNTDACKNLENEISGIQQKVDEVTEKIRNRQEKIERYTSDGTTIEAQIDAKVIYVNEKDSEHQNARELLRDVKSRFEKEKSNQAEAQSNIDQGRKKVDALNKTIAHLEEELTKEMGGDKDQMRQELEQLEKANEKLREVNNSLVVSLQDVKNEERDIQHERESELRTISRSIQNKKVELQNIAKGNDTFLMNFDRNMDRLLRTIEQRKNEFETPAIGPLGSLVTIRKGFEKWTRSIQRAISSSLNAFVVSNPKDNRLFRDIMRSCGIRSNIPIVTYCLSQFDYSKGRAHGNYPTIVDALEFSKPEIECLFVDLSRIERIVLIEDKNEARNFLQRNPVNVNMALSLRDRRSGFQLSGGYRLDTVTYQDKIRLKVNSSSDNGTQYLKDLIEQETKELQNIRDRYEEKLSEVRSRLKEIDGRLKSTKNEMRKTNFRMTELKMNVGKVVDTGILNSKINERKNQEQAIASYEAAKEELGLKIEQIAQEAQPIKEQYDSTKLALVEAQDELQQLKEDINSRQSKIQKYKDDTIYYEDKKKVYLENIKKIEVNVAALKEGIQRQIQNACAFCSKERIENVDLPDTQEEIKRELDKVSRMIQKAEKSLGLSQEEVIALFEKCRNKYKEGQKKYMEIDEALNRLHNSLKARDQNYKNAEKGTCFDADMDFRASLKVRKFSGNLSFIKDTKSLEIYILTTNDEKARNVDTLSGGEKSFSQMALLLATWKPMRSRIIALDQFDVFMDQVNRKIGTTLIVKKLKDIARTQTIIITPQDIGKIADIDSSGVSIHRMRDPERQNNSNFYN

B1: Nse2 (Mms21), subunit of the S. cerevisiae Smc5/6 holo-complex (natural protein)
chain: MALNDNPIPKSVPLHPKSGKYFHNLHARDLSNIYQQCYKQIDETINQLVDSTSPSTIGIEEQVADITSTYKLLSTYESESNSFDEHIKDLKKNFKQSSDACPQIDLSTWDKYRTGELTAPKLSELYLNMPTPEPATMVNNTDTLKILKVLPYIWNDPTCVIPDLQNPADEDDLQIEGGKIELTCPITCKPYEAPLISRKCNHVFDRDGIQNYLQGYTTRDCPQAACSQVVSMRDFVRDPIMELRCKIAKMKESQEQDKRSSQAIDVL
notes: Nse2 (Mms21), Saccharomyces cerevisiae; the model holds amino acids 1-267; source: recombinant, expressed in insect cells, purified as holo-complex (Superose 6 SEC), BS3-crosslinked
B2: Nse4 with HaloTag, kleisin subunit of the S. cerevisiae Smc5/6 holo-complex (natural protein)
chain: MSSTVISRKRRNSTVTEPDSSGETRKQKKSRSDEKSSSSKDGDPQLEFKVLQGYRDLESEMHKGRAQVTRTGDIGVAMDNLNAVDSLFNKVIGIKNNGLFAHDARAMVSISELAQISVRNLKFDDSRSMVNLENIVNSLKRYMLKEHFKLNNIAENRNDLTLAADEQSAADQQEESDGDIDRTPDDNHTDKATSSFKATSMRHSYLQQFSHYNEFSQFNWFRIGALYNTISKNAPITDHLMGPLSIEKKPRVLTQRRRNNDQVGEKITAEKITQHSLNSTQQETTPEQVKKCFKKLSKKLGPEGSINLFKFIIDPNSFSRSIENLFYTSFLIKEGKLLMEHDEEGLPTIKIKQSISHTDSRSKEIERQRRRAAHQNHIIFQMDMPTWRKLIKKYNITSPFLD
notes: Nse4, Saccharomyces cerevisiae; the model holds amino acids 40-124, 184-202, 213-245, 283-402; Density of the HaloTag attached to Nse4 was removed by particle subtraction, so the tag was on the protein on the grid; its end is told only for the yeast strain (C-terminal), not for the recombinant protein; source: recombinant, expressed in insect cells, purified as holo-complex (Superose 6 SEC), …
B3: Smc5 (Walker B mutant E1015Q), subunit of the S. cerevisiae Smc5/6 holo-complex (natural protein)
chain: MTSLIDLGRYVERTHHGEDTEPRSKRVKIAKPDLSSFQPGSIIKIRLQDFVTYTLTEFNLSPSLNMIIGPNGSGKSTFVCAVCLGLAGKPEYIGRSKKVEDFIKNGQDVSKIEITLKNSPNVTDIEYIDARDETIKITRIITRSKRRSDYLINDYQVSESVVKTLVAQLNIQLDNLCQFLSQERVEEFARLKSVKLLVETIRSIDASLLDVLDELRELQGNEQSLQKDLDFKKAKIVHLRQESDKLRKSVESLRDFQNKKGEIELHSQLLPYVKVKDHKEKLNIYKEEYERAKANLRAILKDKKPFANTKKTLENQVEELTEKCSLKTDEFLKAKEKINEIFEKLNTIRDEVIKKKNQNEYYRGRTKKLQATIISTKEDFLRSQEILAQTHLPEKSVFEDIDIKRKEIINKEGEIRDLISEIDAKANAINHEMRSIQRQAESKTKSLTTTDKIGILNQDQDLKEVRDAVLMVREHPEMKDKILEPPIMTVSAINAQFAAYLAQCVDYNTSKALTVVDSDSYKLFANPILDKFKVNLRELSSADTTPPVPAETVRDLGFEGYLSDFITGDKRVMKMLCQTSKIHTIPVSRRELTPAQIKKLITPRPNGKILFKRIIHGNRLVDIKQSAYGSKQVFPTDVSIKQTNFYQGSIMSNEQKIRIENEIINLKNEYNDRKSTLDALSNQKSGYRHELSELASKNDDINREAHQLNEIRKKYTMRKSTIETLREKLDQLKREARKDVSQKIKDIDDQIQQLLLKQRHLLSKMASSMKSLKNCQKELISTQILQFEAQNMDVSMNDVIGFFNEREADLKSQYEDKKKFVKEMRDTPEFQSWMREIRSYDQDTKEKLNKVAEKYEEEGNFNLSFVQDVLDKLESEIAMVNHDESAVTILDQVTAELRELEHTVPQQSKDLETIKAKLKEDHAVLEPKLDDIVSKISARFARLFNNVGSAGAVRLEKPKDYAEWKIEIMVKFRDNAPLKKLDSHTQSGGERAVSTVLYMIALQEFTSAPFRVVDQINQGMDSRNERIVHKAMVENACAENTSQYFLITPKLLTGLHYHEKMRIHCVMAGSWIPNPSEDPKMIHFGETSNYSFD
notes: Smc5, Saccharomyces cerevisiae; the model holds amino acids 35-390, 394-882, 884-1068; The complex was crosslinked with BS3; also called κ-SMC; source: recombinant, expressed in insect cells, purified as holo-complex (Superose 6 SEC), BS3-crosslinked
B4: Nse1, subunit of the S. cerevisiae Smc5/6 holo-complex (natural protein)
chain: MEVHEEQVSAPVTGDATAKYLLQYILSARGICHENALILALMRLETDASTLNTEWSIQQWVDKLNDYINAINVKLNLLGYKIIRINHGIGRNAVTLKAKQNFESFEDNTAIRAHNNDYAVLQSIVLPESNRFFVYVNLASTEETKLATRFNQNEIEFMKWAIEQFMISGETIVEGPALETSIIVKEVNRILVAATGDSNLAKWRKFSTFTVGSTNLFQFQELTATDIEDLLLRLCELKWFYRTQEGKFGIDLRCIAELEEYLTSMYNLNTCQNCHKLAIQGVRCGNESCREENEETGENSLSQIWHVDCFKHYITHVSKNCDRCGSSLITEGVYVI
notes: Nse1, Saccharomyces cerevisiae; the model holds amino acids 11-336; also called KITE subunit; source: recombinant, expressed in insect cells, purified as holo-complex (Superose 6 SEC), BS3-crosslinked

Assays:
Assay in all cases: cryo-EM structure; BS3-crosslinked six-subunit holo-complex, apo / non-liganded; fractions from Superose 6 diluted to 20 mM HEPES.NaOH pH 7.5, 50 mM NaCl, 0.5 mM TCEP, 0.1 mg/ml; maps at 10.8 Å (holo-complex), 8.53 Å (hinge/arm) and 6.5 Å (head-only); pseudo-atomic model built from homology and AlphaFold models
Details in all cases: both partners purified
[1] = target: T1, Smc6 (Walker B mutant E1048Q), subunit …
[2] = target: B3
[3] = target: B2

binding result [1] | binding result [2] | binding result [3] | Binder
binds | binds | – | B1
binds | binds | – | B2
binds | – | – | B3
– | binds | binds | B4
